# doi:10.1101/410217 (bioRxiv, 2018)
# T1: human parechovirus 3 (HPeV3) isolate A308/99 virion (Human parechovirus 3, isolate A308/99, strain)
# T1 chain 1: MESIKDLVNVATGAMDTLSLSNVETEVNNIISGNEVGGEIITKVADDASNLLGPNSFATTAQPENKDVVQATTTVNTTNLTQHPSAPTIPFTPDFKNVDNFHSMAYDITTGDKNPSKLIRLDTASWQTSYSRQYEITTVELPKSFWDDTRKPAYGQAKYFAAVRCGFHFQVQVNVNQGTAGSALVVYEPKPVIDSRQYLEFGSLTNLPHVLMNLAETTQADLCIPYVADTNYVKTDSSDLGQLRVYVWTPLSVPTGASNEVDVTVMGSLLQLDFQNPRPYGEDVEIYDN
# T1 chain 2: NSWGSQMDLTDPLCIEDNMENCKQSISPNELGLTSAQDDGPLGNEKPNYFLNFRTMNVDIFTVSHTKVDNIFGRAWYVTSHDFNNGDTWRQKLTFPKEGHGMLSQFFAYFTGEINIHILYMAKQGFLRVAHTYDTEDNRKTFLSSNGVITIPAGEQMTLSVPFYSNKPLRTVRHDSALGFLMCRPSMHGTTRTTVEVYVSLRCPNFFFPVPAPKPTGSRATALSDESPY
# T1 chain 3: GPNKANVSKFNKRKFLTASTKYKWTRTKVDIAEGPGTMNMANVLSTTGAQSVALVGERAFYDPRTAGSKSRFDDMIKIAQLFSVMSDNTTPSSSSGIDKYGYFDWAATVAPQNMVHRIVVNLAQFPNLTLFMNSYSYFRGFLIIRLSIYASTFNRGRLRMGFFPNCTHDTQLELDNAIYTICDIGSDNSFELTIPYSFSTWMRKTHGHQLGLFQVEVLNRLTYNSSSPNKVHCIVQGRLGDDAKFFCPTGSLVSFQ
# B1: Fab fragment of human monoclonal antibody AT12-015 (Fab, V domains shown)
# VH: EVQLLESGGGLVQPGGSLRLSCAASGFTFSSYAMSWVRQAPGKGLEWVSAISGGGDSRYYADSVKGRFTISRDNSKNTLYLQMNSLGAEDTALYYCAKRLGRVAEYYFDYWGQGTLVTVSP
# VL: DIQMTQSPSTLSASVGDRVTITCRTSQSISNWLAWYQQKPGKAPKLLIYQASTLENGVPSRFTGSGSGTEFSLTISSLQPDDFATYYCQQYNNYMALTFGGGTKVEIK
# Target: T1, human parechovirus 3 (HPeV3) isolate …
# Assay: cryo-EM structure
binder,measurement,value
B1,stoichiometry N,60 Fab per virion
